Assay: yeast display, Sf9 membrane polyspecificity reagent, FACS + sequencing; frameworks hold sequencing errors
Summary of the method: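 A nanobody's polyreactivity label depends on the gate it was sorted from. Yeast display cells were stained with 10% biotinylated, detergent-solubilized Sf9 membrane reagent for 1 hour at 4 °C, enriched on streptavidin microbeads and sorted by FACS. The low and high (top ~1%) gates were set on anti-HA fluorescence for expression and streptavidin fluorescence for reagent binding.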

| Sequence | polyreactivity (PSR sort gate) |
| --- | --- |
| QVQLVESGGGLVQAGGSLRLSCAASGSIFRFYAMGWYIQAPGKERELVAGITWSGASTYYADSVKGRFTISRDNAKNTVYLQMNSLKPEDNAVYYCSAKSLIVRYDSWGQGTQVTVSS | high polyreactivity |
| QVQLVESGGGLVQAGGSLRLSCAASGSIFRFYTMGWYRQAPGKERELVASITWTGGSTYYADSVKGRFTISRDNAKNTVYLQMNSLKPEDTAVYYCAARRYRRLVGRYDYWGQGTQVTVSS | low polyreactivity |
| QVQLVESGGGLVQAGGSLRLSCAASGSIFRFYVMGWYRQAPGKEREMVAAISIGGSTNYADSVKGRFTISLDNAKNTVFLQMNSLKPEDTAVYYCAADYWYGAGMPHGTEFDYWGQGTQVTVSS | low polyreactivity |
| QVQLVESGGGLVQAGGSLRLSCAASGSIFRGNAMGWYRQAPGKERELDATISNGGSTNYADAVKGRFTISRDNAKNTVYLQMNSLKPEDTAVYYCAKPLYKTWWGYAYDYWGQGTQVTVSS | high polyreactivity |
| QVQLVESGGGLVQAGGSLRLSCAASGSIFRGNAMGWYRQAPGKERELVAGINRAGSTKYADSVKGRFTISRDNAKNTVYLLMNSLKPEETAVYYCAARGYSSEYDYWGKGTQVTVSS | high polyreactivity |
| QVQLVESGGGLVQAGGSLRLSCAASGSIFRGNAMGWYRQAPGKERELVAVITWSGGSTYYADSVKGRFTISRDNAKNTVYLQMNSLKPEDTAVYYCNAARKQRVYFAGDYWGQGTQVTVSS | high polyreactivity |
| QVQLVESGGGLVQAGGSLRLSCAASGSIFRGNGMGWYRQAPGKERELVAAISRSGGRTYYADSVKGRFTISRDNAKNTVYLQMNSLKPEDTAVYYCNAARTYQYDYWGQGTQVTVSS | high polyreactivity |
| QVQLVESGGGLVQAGGSLRLSCAASGSIFRGYAMGCYRQAPGKERELVAAITSGGSTNYADSVKGRFTISRDNAKNTVYLQMNSLKPEDTAVYYCAKDLALVAPLSDYWGQGTQVTVSS | low polyreactivity |
| QVQLVESGGGLVQAGGSLRLSCAASGSIFRGYAMGWYRQAPGKERELVAAINTSGGRTYYADSVKGRFTISRDNAKNTVYLQMNSLKPEDTAVYYCATEYYQAKREDYWGQGTQVTVSS | high polyreactivity |
| QVQLVESGGGLVQAGGSLRLSCAASGSIFRGYAMGWYRQAPGKERELVAAISIGGRTYYADSVKGRFTISRDNAKNTVYLQMNSLKPEDTAVYYCAVQKPKTGKGKKDTYGRDGYWGQGTQVTVSS | high polyreactivity |
| QVQLVESGGGLVQAGGSLRLSCAASGSIFRGYAMGWYRQAPGKGRELVAAISWSGASTYYADSVKGRFTISRDNAKNTVYLQMNSLKPEDTAVYYCAAVQWTGYPFDYWGQGTQVTVSS | high polyreactivity |
| QVQLVESGGGLVQAGGSLRLSCAASGSIFRGYDMGWYRQPPGKERELVAAISRSGGITYYADSVKGRFTISRDNAKNTVYLNMNSLKPEVTAVYYCAASRAGGYYGKGYSWGQGTQVTVSS | high polyreactivity |
| QVQLVESGGGLVQAGGSLRLSCAASGSIFRGYGMGWYRQAPGKERELVAAITSGDSTNYADSVKARFTLSRDNAKTTVYLQMNSLKPEDTAVNYCAAASTGRPSVSYDYWGQGTQVTVSS | low polyreactivity |
| QVQLVESGGGLVQAGGSLRLSCAASGSIFRGYSMGWYRQAPGKERELVAAINTSGGRTYYADSVKGRFTISRDNAKNTVYLQMNSLKPEDTAVFYCATEYYQAKREDYWGQGTQVTVSS | high polyreactivity |
| QVQLVESGGGLVQAGGSLRLSCAASGSIFRGYTLGWYRQAPGKERELVAAISTRGGSTYYADSVKGRFTISRDNANNTVYLQMNSLKPEDTAVYYCNARSRGRASGYDYWGQVTQVTVSS | high polyreactivity |
| QVQLVESGGGLVQAGGSLRLSCAASGSIFRINAMGWYRQAPGKERELVAAITRSGGSTFYADSVKGRFTISRDNAKNTVYLQMNSLKPEDTAVYYCAAVWYYSTVPARYEYWGQGTQVTVSS | low polyreactivity |

| Sequence | polyreactivity (PSR sort gate) |
| --- | --- |
| QVQLVESGGGLVQAGGSLRLSCAASGSIFRIYAKGWYRQAPGKERELVAAISSTGSTSYADSVKGRFTISRDNAKNTVYLQMNSLKPEDTAVYYCAAGVYALRRDYWVQGTQVTVSS | low polyreactivity |
| QVQLVESGGGLVQAGGSLRLSCAASGSIFRIYAMGWYRPAPGKERELVAAISRGGGSTYYADSVKGRFTISRDNAKNTVYLQMNSLKPEDTAVYYCAARSPYRYYYWGQGTQVTVSS | high polyreactivity |
| QVQLVESGGGLVQAGGSLRLSCAASGSIFRIYAMGWYRQAPGKERELVAGISKSGGSTYYADSVKGRFTISRDNAKNTVYLQMNSLKPEDTAVYYCAAGYYYFWTYDYWGQGTQVTVSS | low polyreactivity |
| QVQLVESGGGLVQAGGSLRLSCAASGSIFRKNAMGWYRQAPGKERELVAAITGTGRTTYADSEKGRFTISRDNAKNTVYLQMNSLKPEDTAVYYCAADVNYYQHRLYYWGQGTQVSVSS | low polyreactivity |
| QVQLVESGGGLVQAGGSLRLSCAASGSIFRKYTMGWYRQAPGKERELVAAISGTAGRTYYADSVKGRFTISRDNAKNTVYLQMNSLKPEDTAVYYCAARRFGGYGYNYWGQGTQVTVSS | high polyreactivity |
| QVQLVESGGGLVQAGGSLRLSCAASGSIFRLYALGWYRQAPGKERELVAAISRRGGSTNYADSVKGRFTISRDNAKNTVYFQMNSLKPEDTAVYYCARDVDTHYPYAYDYWGQGTQVTVSS | high polyreactivity |
| QVQLVESGGGLVQAGGSLRLSCAASGSIFRNYAMGWYRQAPGKERELVAAITSIGGGTYYADSVKGRFTISRDNAKNTVYLQMNSLKPEDTAVYYCAAVSGPFVQTSGNGEYDYWGQGTQVTVSS | low polyreactivity |
| QVQLVESGGGLVQAGGSLRLSCAASGSIFRPNTMGWYRQAPGKERELVAAINWSGDDTYYADSVKGRFTISRDNAKNTVYLQMNSLKPEDTAVYYCAVDLFDGVTKLNYDYWGQGTQVTVSS | low polyreactivity |
| QVQLVESGGGLVQAGGSLRLSCAASGSIFRPNVMGWYRQAPGKERELVAAITGSGGSTYYADSVKGRFTISRDNAKNTVYLQMNSLKPEDTAVYYCNARTVSRGRYTYDYWGQGTQVTVSS | low polyreactivity |
| QVQLVESGGGLVQAGGSLRLSCAASGSIFRPYAMGWYRQAPGKEREFVAAITYGGGNTYYADSVKGRFTISRDNAKNTFYLQMNILKPEDTAVYYCNKLSRGFSPKYDYWGQGTQVTVSS | high polyreactivity |
| QVQLVESGGGLVQAGGSLRLSCAASGSIFRPYAMGWYRQAPGKERELVAGITWGGSRTYYADSVKGRFTISRDNAKNTVYLQMNSLKPEDTAVYYCAAYPSTNGYIYYYWGQGSQVTVSS | high polyreactivity |
| QVQLVESGGGLVQAGGSLRLSCAASGSIFRPYAMGWYRQAPGKERELVATINQSGSSTYYADSVKGRFTISRDNAKNTVYLQKNSLKPEDTAVYYCAVVYTYHGYTYDYWGQGTQVTVSS | low polyreactivity |
| QVQLVESGGGLVQAGGSLRLSCAASGSIFRQYAMGWYRQAPGKERELVAAINYSGGNTYYADSVKGRFTISRDNAKNTVYLQMNSLKPEDTAVYYCAADSVRHFWWAYYYWGQGTQVTVSS | low polyreactivity |
| QVQLVESGGGLVQAGGSLRLSCAASGSIFRRNAMGWYRQAPGKDRELVAAITTRGSRTTYADSVKGRFTISRDNAKNTVYLQMNSMKPEDTAVYYCAARQHFSYSFHVAYDYWGQGTQVTVSS | high polyreactivity |
| QVQLVESGGGLVQAGGSLRLSCAASGSIFRRYAMGGYRQAPGKERELVAAITSGDTTKYADSVKGRFTISRDNAKNTVYLQMNSLKPEDTAVYYCNKKGWPRFVHGFLRRDDYWGQGTQVTVSS | low polyreactivity |
| QVQLVESGGGLVQAGGSLRLSCAASGSIFRRYAMGWYRHAPGKEREFVAAITRSGGGTYYADSVKGRFTISRDNAKNTVSLQMNSLKPEDTAVYFCAKDVFVQRSRYPEGDYWGQGTQVTVSS | high polyreactivity |

From the nanobody polyreactivity screen of Harvey et al. (2022)
